Values of other authors, collected in US20230076733A1, “Combination Therapy” (AGENCY FOR SCIENCE, TECHNOLOGY AND RESEARCH, priority 2020, published 2023).

Conditions: phase 3 trials, cited from earlier work

B1: Figitumumab (antibody, chains of the INN, looked up)
heavy: EVQLLESGGGLVQPGGSLRLSCTASGFTFSSYAMNWVRQAPGKGLEWVSAISGSGGTTFYADSVKGRFTISRDNSRTTLYLQMNSLRAEDTAVYYCAKDLGWSDSYYYYYGMDVWGQGTTVTVSSASTKGPSVFPLAPCSRSTSESTAALGCLVKDYFPEPVTVSWNSGALTSGVHTFPAVLQSSGLYSLSSVVTVPSSNFGTQTYTCNVDHKPSNTKVDKTVERKCCVECPPCPAPPVAGPSVFLFPPKPKDTLMISRTPEVTCVVVDVSHEDPEVQFNWYVDGVEVHNAKTKPREEQFNSTFRVVSVLTVVHQDWLNGKEYKCKVSNKGLPAPIEKTISKTKGQPREPQVYTLPPSREEMTKNQVSLTCLVKGFYPSDIAVEWESNGQPENNYKTTPPMLDSDGSFFLYSKLTVDKSRWQQGNVFSCSVMHEALHNHYTQKSLSLSPG
light: DIQMTQFPSSLSASVGDRVTITCRASQGIRNDLGWYQQKPGKAPKRLIYAASRLHRGVPSRFSGSGSGTEFTLTISSLQPEDFATYYCLQHNSYPCSFGQGTKLEIKRTVAAPSVFIFPPSDEQLKSGTASVVCLLNNFYPREAKVQWKVDNALQSGNSQESVTEQDSKDSTYSLSSTLTLSKADYEKHKVYACEVTHQGLSSPVTKSFNRGEC
Lung cancer, Figitumumab in combination with one chemotherapy regimen versus carboplatin or paclitaxel chemotherapy alone
  serious adverse events and deaths: 21%
Figitumumab combined with established chemotherapy regimens (carboplatin and paclitaxel)
  survival: failed to improve survival
